In test [1] the target is T1, Human PD-L1 expressed on cells (human, UniProt Q9NZQ7 19-290). Put plainly: cell-based or functional assay.
Test [2] concerns the target T1, Human PD-L1 expressed on cells. Kind of test: flow cytometry on CHO hPD-L1 cells, competitor biotin-PD-1-Fc, n = 2. Here is the method:
(§1) 150 μL FACS buffer is added and cells washed as described above. […] Cells are incubated at 4° C. for 60 minutes. Cells are washed twice with 150 μL FACS buffer, centrifuging at 300 g for 3 minutes after each wash step and aspirating supernatant. Cells are fixed, washed and resuspended for analysis as above. APC signal intensity (geometric mean) is measured by flow cytometry using a Beckman Coulter CYTOFLEX instrument. Data is plotted as percentage of receptor binding.
Background: In flow cytometry, cells or beads pass a laser one at a time.

The target of test [3] is T2, Human PD-L1 His (human PD-L1 ECD with C-terminal His tag) (human, UniProt Q9NZQ7 19-238).
T2 construct: Biotinylated in ELISA and AlphaScreen assays; also called hPD-L1-his; biotinylated PD-L1 his
Put plainly: ELISA, biotin-PD-L1 to plate-bound PD-1, antibody titrated. On the procedure: Excess protein was removed by washing with PBS-Tween (0.1% v/v) and the wells were blocked with 1% w/v bovine serum albumin (BSA, Sigma) in PBS for 1 hour at room temperature, after which plates were washed as described previously. […] The plate was incubated for 30 minutes before transferring 50 μL to the coated plates. The coated plates were incubated for 1 hour at room temperature. Excess protein was removed by washing with PBS-Tween (0.1% v/v). PD-L1 binding was detected using streptavidin labelled Europium (Perkin Elmer) diluted 1/1000 in DELFIA assay buffer (Perkin Elmer). Plates were washed with TBS (Tris buffered saline)-Tween (0.1% v/v) and 50 μL/well of DELFIA Enhancement solution (Perkin Elmer) was added to the plate. Time-resolved fluorescence was measured at 615 nm on an Envision plate reader (PerkinElmer).
(In general: ELISA stands for enzyme-linked immunosorbent assay.)

In test [4] the target is T1, Human PD-L1 expressed on cells. Put plainly: flow cytometry on CHO hPD-L1 cells, competitor biotin-CD80-Fc, n = 1. Here is the method: as §1
(§2) All other steps are performed as per plate 2.

The target is the same in test [5]. Kind of test: flow cytometry on CHO hPD-L1 cells, competitor biotin-PD-1-Fc. Here is the method: Plates were centrifuged at 300×g for 3 minutes to supernatant aspirated. […] Cells were washed with 150 μL of PBS and centrifuged at 300 g for 3 minutes. Supernatant was aspirated and 150 μL PBS added. This wash step was repeated.
For test [6] the target is unchanged. Put plainly: flow cytometry on CHO hPD-L1 cells, competitor biotin-CD80-Fc, n = 2. On the procedure: as §1, §2
Test [7] has the same target. Put plainly: cell-based or functional assay. The source holds these as a separate data set.
The target in a further test is T3, PD-L2-Fc (R&D Systems) (UniProt Q9BQ51 20-219, limits assumed).
T3 construct: not shown: Fc of the bought protein
T3 sequence (looked up): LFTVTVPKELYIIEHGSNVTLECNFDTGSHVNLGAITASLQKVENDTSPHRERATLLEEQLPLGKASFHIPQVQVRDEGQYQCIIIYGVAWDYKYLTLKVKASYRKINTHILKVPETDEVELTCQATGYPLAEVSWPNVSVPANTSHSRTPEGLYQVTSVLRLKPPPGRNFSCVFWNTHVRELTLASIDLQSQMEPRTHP
Kind of test: DELFIA plate assay, biotinylated antibody on plate-bound PD-L2-Fc. On the procedure: Excess protein was removed by washing with PBS-Tween (0.1% v/v) and the wells were blocked with 250 μL/well Pierce Protein Free Blocking Buffer (Thermo, 37572) for 1 hour, after which plates were washed as described previously. […] 100 μL each antibody dilution was added to the plates in duplicate and incubated for 1 hour at room temperature, before washing as stated above. Antibody binding was detected using streptavidin labelled Europium (Perkin Elmer) diluted 1/1000 in DELFIA Assay buffer (Perkin Elmer). Plates were washed with TBS (Tris buffered saline)-Tween (0.1% v/v) and 50 μL/well of DELFIA Enhancement solution (Perkin Elmer) was added to the plate. Time-resolved fluorescence was measured at 615 nm on an Envision plate reader (PerkinElmer).

Test [8] concerns the target T1, Human PD-L1 expressed on cells. Put plainly: cell-based or functional assay. The source holds these as a separate data set.
For test [9] the target is unchanged. Kind of test: flow cytometry on CHO hPD-L1 cells, competitor biotin-PD-1-Fc, n = 1. On the procedure:
as §1

Test [10] has as its target T4, Cyno PD-L1 FLAG (cynomolgus PD-L1 ECD with FLAG tag) (cynomolgus monkey).
T4 construct: also called cynomolgus monkey PD-L1-FLAG
Put plainly: SPR 37C, antibody captured, PD-L1 analyte. On the procedure:
(§3) Label-free surface plasmon resonance (SPR) analysis was carried out on the ProteOn XPR36 (BioRad) array SPR machine. An anti-human IgG capture surface was created on a GLC biosensor chip using a combination of anti-human Fc antibodies (Jackson Labs 09-005-008,109-006-008 and 309-006-008) by amine coupling. […] The data was analysed using the 1:1 model inherent to the ProteOn XPR36 analysis software.
(§4) Label-free surface plasmon resonance (SPR) analysis was performed as per Example 4, except the assay was performed at 37° C.

In test [11] the target is T2, Human PD-L1 His (human PD-L1 ECD with …). Put plainly: SPR 37C, antibody captured, PD-L1 analyte. Here is the method: as §3, §4

As usually defined, the IC50 is the concentration needed to halve the response being measured. The low end stands for greater potency, the high end for weaker potency. A word on the Kd: it is the constant that tells how readily two partners part at equilibrium.

T1 sequence (Q9NZQ7 19-290 limits assumed): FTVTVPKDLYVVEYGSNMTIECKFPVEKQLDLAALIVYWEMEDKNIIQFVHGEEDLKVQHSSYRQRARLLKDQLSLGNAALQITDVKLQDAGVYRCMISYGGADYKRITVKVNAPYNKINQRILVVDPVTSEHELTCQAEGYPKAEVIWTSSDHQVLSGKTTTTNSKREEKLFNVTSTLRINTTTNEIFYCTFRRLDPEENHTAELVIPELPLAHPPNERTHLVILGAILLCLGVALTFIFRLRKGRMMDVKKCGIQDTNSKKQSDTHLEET
T2 sequence (Q9NZQ7 19-238 limits assumed): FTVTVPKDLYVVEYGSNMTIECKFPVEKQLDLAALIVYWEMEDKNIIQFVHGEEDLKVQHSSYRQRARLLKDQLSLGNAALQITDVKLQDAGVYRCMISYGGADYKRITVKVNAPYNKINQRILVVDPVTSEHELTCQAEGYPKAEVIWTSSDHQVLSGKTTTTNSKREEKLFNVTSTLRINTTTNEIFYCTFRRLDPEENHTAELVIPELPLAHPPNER
T4 sequence (chain, as listed by the source limits assumed): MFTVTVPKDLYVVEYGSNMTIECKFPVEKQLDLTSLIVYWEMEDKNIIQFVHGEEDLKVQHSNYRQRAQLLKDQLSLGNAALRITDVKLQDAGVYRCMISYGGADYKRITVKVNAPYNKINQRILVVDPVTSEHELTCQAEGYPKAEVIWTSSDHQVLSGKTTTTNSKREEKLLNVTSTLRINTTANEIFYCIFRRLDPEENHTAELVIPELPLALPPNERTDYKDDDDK

B1: 84G09 (human IgG1) (antibody, V domains shown)
VH: EVQLVESGGGLVQPGRSLRLSCAASGFTFDDYAMHWVRQTPGKGLEWVSGISWKSNIIGYADSVKGRFTISRDNAKNSLYLQMNSLRAEDTALYYCARDITGSGSYGWFDPWGQGTLVTVSS
VL: DIQMTQSPSSLSASVGDRVTITCRASQSISSYLNWYQQKPGKAPKPLIYVASSLQSGVPSSFSGSGSGTDFTLTISSLQPEDFATYYCQQSYSNPITFGQGTRLEIKR
notes: also called clone 84609; lead antibody
Regarding B1, in [1], the “EC50, IL-2 induction, murine T cell hybridoma assay, n = 1” value came to 0.24 nM. Moreover, the “EC50, IL-2 induction, murine T cell hybridoma assay, n = 2” value in test [1] came to 0.14 nM. In addition, in [1], the “EC50, IL-2 induction, murine T cell hybridoma assay, n = 3” value worked out at 0.17 nM. For the same molecule, the IC50 turned out to be 1.41 nM in test [2]; 7.9 nM in [3]; 1.11 nM in [4]; 1.82 nM in test [5]; 1.41 nM in test [6]; 0.89 nM in test [9]. In addition, the “mean EC50, IFNγ induction, monocyte-T cell co-culture” value in [7] was 0.081 nM. Also, the binding result with PD-L2-Fc (R&D Systems) was “no binding (tested: 10 µg/mL top concentration)”. Besides, the “EC50, ADCC reporter assay, n = 1” value in test [8] amounted to 0.0249 nM. Also, the “EC50, ADCC reporter assay, n = 2” value in test [8] was 0.0153 nM. The “EC50, ADCC reporter assay, n = 3” value in test [8] worked out at 0.0259 nM. Moreover, the Kd in test [10] turned out to be 0.52 nM; in [11] it was 0.43 nM.

Values taken from patent publication US20210380699A1 (published 2021).
